Laboratory results as given in PMC4712133 (2016).
No end group written: not given here.

Columns and labels:
[1] = molecular target: T1, osteopontin (OPN), recombinant human (human, UniProt P10451 17-314); assay: SPR
[2] = molecular target: T1, osteopontin (OPN), recombinant human; assay: SPR; remark: listed apart in the source

T1 sequence (P10451 17-314): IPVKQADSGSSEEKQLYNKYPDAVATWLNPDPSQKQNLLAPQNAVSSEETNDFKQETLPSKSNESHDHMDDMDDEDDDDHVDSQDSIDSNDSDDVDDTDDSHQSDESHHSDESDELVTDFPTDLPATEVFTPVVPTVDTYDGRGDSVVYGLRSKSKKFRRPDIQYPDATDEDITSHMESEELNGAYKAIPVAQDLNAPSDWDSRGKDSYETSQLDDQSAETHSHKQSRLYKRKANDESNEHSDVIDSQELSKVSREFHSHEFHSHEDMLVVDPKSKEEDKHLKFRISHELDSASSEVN

B1: midkine (natural protein)
chain: VAKKKDKVKKGGPGSECAEWAWGPCTPSSKDCGVGFREGTCGAQTQRIRCRVPCNWKKEFGADCKYKFENWGACDGGTGTKVRQGTLKKARYNAQCQETIRVTKPCTPKTKAKAKAKKGKGKD
Binder B1 has a Kd [1] of 0.027 µM.

B2: human beta defensin-3 (hBD-3) (natural protein)
chain: GIINTLQKYYCRVRGGRCAVLSCLPKEEQIGKCSTRGRKCCRRKK
modifications: ends and bridges not checked; cysteine pairing not given here
Binder B2 has a koff [2] of 0.02 s⁻¹ and a Kd [1] of 0.79 µM.

B3: lactoferrin purified from human milk (natural protein)
chain: GRRRSVQWCAVSQPEATKCFQWQRNMRKVRGPPVSCIKRDSPIQCIQAIAENRADAVTLDGGFIYEAGLAPYKLRPVAAEVYGTERQPRTHYYAVAVVKKGGSFQLNELQGLKSCHTGLRRTAGWNVPIGTLRPFLNWTGPPEPIEAAVARFFSASCVPGADKGQFPNLCRLCAGTGENKCAFSSQEPYFSYSGAFKCLRDGAGDVAFIRESTVFEDLSDEAERDEYELLCPDNTRKPVDKFKDCHLARVPSHAVVARSVNGKEDAIWNLLRQAQEKFGKDKSPKFQLFGSPSGQKDLLFKDSAIGFSRVPPRIDSGLYLGSGYFTAIQNLRKSEEEVAARRARVVWCAVGEQELRKCNQWSGLSEGSVTCSSASTTEDCIALVLKGEADAMSLDGGYVYTAGKCGLVPVLAENYKSQQSSDPDPNCVDRPVEGYLAVAVVRRSDTSLTWNSVKGKKSCHTAVDRTAGWNIPMGLLFNQTGSCKFDEYFSQSCAPGSDPRSNLCALCIGDEQGENKCVPNSNERYYGYTGAFRCLAENAGDVAFVKDVTVLQNTDGNNNEAWAKDLKLADFALLCLDGKRKPVTEARSCHLAMAPNHAVVSRMDKVERLKQVLLHQQAKFGRNGSDCPDKFCLFQSETKNLLFNDNTECLARLHGKTTYEKYLGPQYVAGITNLKKCSTSPLLEACEFLRK
In the case of B3, the koff [2] is reported as 0.01 s⁻¹ and the Kd [1] is reported as 2.5 µM.

B4: secretory leukocyte peptidase inhibitor (SLPI), recombinant human (natural protein)
chain: SGKSFKAGVCPPKKSAQCLRYKKPECQSDWQCPGKKRCCPDTCGIKCLDPVDTPNPTRRKPGKCPVTYGQCLMLNPPNFCEMDGQCKRDLKCCMGMCGKSCVSPVKA
In the case of B4, the koff [2] is reported as 0.0016 s⁻¹ and the Kd [1] is reported as 0.43 µM.
